From a protein production outcome set (Wang et al. 2014)

Assay: label from the status in PepcDB records

Sequence	protein production
MPEQDVPRVRLFGAHELKISDIFDEKKDIYYVPIFQGKDDVNKLHQSAYTGKNTKCAILDSGVLTDHPYLKDRMDAIEDFTGHGFQDREGHGTAVALNLAMTAPDASILIGKVYENDDVPLSEYINRIARGVNWAIDSGARIINLSVGMEKRKEDISNYPGCSEAVKNVCKAITQAIENGISVLVAAGANFPADCHESIIVVGLPGNPVYPKDVHPTVYSPFSPILVPTFLFEGYAHLKMGMYEQALALFKQAADLHPEDHQLWKYQALCRYGLKKYNDAILSFDKALAIKQSDVKTWYLKGITLLALTQNDKAIECFDEVLKLVNNAGLTGMKLTEFSNSISDDWYNMGVYYEQASRYDEAANCYDKAIRIDPLNAKAWNNRGVILAIEEKYEDSIKYFEVATELKPSMVDAWFNKGLALSRIGKYEESIEFFDKAIAIDPASNKALKERIRVSGKLKSKEE	failed
MPERINKMKIIAFYLPQFHNIPENDEWWGDGFTEWVNVKKAKPIFDGHNQPRVPLNHNYYNLLDDDVKIWQADLAKKYGVYGFCYYHYWFDGKLLLEKPMEQMLENKKVDIPFCICWANEPWTRAWVGETKTLIPQKYGSKKEWKEHFDYLLPFFKDPRYILDEGKPLVVIYRPEIIDVLNDMLDYWNELAKNAGFEGLKFAYQSAGMDELPKNKRNDSRFDYDIEFQPAYAFTKLNKNTLPVLRKIKKVVSDFVEKRTGLTLRFIGSGKVAALNRVDYDKAWETILNTTPESIINVPGAFVDWDNTPRHGERGRVYIGKTPEKFEKYLSEQIRRAKNVYHKDMIFMYAWNEWAEGGYLEPDQTSGYAYLEAIKKALDENGENPWQH	failed
MPESRVKSEPSPAPYWRRNVRLIVLLLACWAGLTFVPAYFARQLAFDFIGWPFSFWMAAYGAPLAYLILIVIYALVMNRFDARSRTRRDD	failed
MPETYIITPNLNGVSFLEVYFRSLLRQTYEDFRVVFIDNGSSDGSVDFIKSNFSEYLGDRIILIENHENLGFAASNNQGIRIALDDPQCRYVVCLNNDTEVLPDFIENLILAAGDDERVGSVQARMIWGQNRKLIDSAGLEYSLNGLGFNRGAYEPVENFNERARILGCCAGACLYRREALEDVEVDAEYFDEDFFAYYEDFDLALRLRSAGWDSLYAPDATVYHYKGGTNPFISDFTVYHNWRNYTWTFIKNMPADLLLMCLPLFVLTEIIQVLLNIKRGKLIILRAKYDAYRGLGRVIRKRRALKRVPESEIKEYLTMRWSVKVPSPQED	failed
MPFINIKLVPENGGPTNEQKQQLIEGVSDLMVKVLNKNKASIVVIIDEVDSNNYGLGGESVHHLRQKN	failed
MPFNTLAPQFSRLGPGLVLSIAATGLAFAIHTVFPAVPAMTLAVALGLLSANIPGTAVLTAGRARPGLDFAGKHLMRAGIVLLGLKVSIGDVIGLGWLSLLLIAGVVLLSFAGTYGLARLLRLPGEAALLIATGFSICGASAIGAMAAVRRIKHQDTVLPVALVTLCGTLAIGVLPLLMHPLNLNPEQFGAWTGASVHDVGQVVATAQTAGTSALAIAVVVKLTRVVLLAPVAAAAGVHQRILHVRERSNGKGDAAKSIDGRFPPIVPLFVVGFLSMVAVRSLGWVPPVGLEIAAAVQDILLATALFGLGSAVRVRTLIHTGGRAILVALGSWLLIASLGLGAAWIMIR	failed
MPFRTIARLNPAKPKAGEEFRLQVVAQHPNEPGTRRDAEGKLIPAKYINLVEVYFEGEKVAEARPGPSTSANPLYAFKFKAEKAGTFTIKLKDTDGDTGEASVKLELV	not failed
MPFVLRCLLCCTLFVLGGCAAHEAPLAPVNPMGLSGNVAPEAEKNYALARVLWGNSEVCSDPVQAVAYLDRAIAVQPDYAAAYQRRGLAYSEMGRYEEAFEDLTKALRLKPGVEAYTYRGLVSMRMGNLIGARKDLDHALELDSGYHRAWNFRAAVRLQQDDTAGACADFAKGCSKGDCTGMESARESGICK	failed
MPGSIPLIGERFPEMEVTTDHGVIKLPDHYVSQGKWFVLFSHPADFTPVCTTEFVSFARRYEDFQRLGVDLIGLSVDSVFSHIKWKEWIERHIGVRIPFPIIADPQGTVARRLGLLHAESATHTVRGVFIVDARGVIRTMLYYPMELGRLVDEILRIVKALKLGDSLKRAVPADWPNNEIIGEGLIVPPPTTEDQARARMESGQYRCLDWWFCWDTPASRDDVEEARRYLRRAAEKPAKLLYEEARTHLH	not failed
MPGSPRGLCTRSRKSTMSTHGTIGVLGAGEVGQAVADKAVRHGHEVLIGNSRGPRTLEALVGRLGPKARAVTAEEAVQPELVFLSVPFFAVPELTGLTTWAGKIVVDTTNQFAAANPWRGRYDVGDLTGSEWVARHLPGARLVKALNTLFATFIAADPRHAEGRQVAFYAGDDADAKTAVAGLLDEFGFAALDLGGLRDGGRLMQLDGALSAKHLLLQDVG	failed
MPGVLVTGGTGKTGKVLVQVLRNAGVQARVASRNPAAADPDPIRFDWNDPTTYGPALDGMDRVFLLPPVESVDPLPLVEPFLRRAQRAGVQRLVMLGSAIVLPNAPSAVEMAAQVQAQPGGVVLRASGFMQNFLRPHPLAEHIHRLGEIRTAAGDGRLGWVDARDIAASAAALLADLEVDARSDYLITGPHGMSYPQAAQIITAQTGRRVRVERITEEEQAAAHRASGMPPAFADALAAVERGIKEGREDQVSTAVLELTGRPPRTFAEFVSDHAYEWTQ	failed
MPGWHALTKPARFRYPEGLHGREIRVEFIDNIRYKKIKNAVGRAVADFGLIRDGDRIAVAVSGGKDSYTLLHILEGLRRRAPVKYELVAVTIDSGYPGFRSDVIASYLREQGFAHHLETTDHYDIIREKRRPGSSYCSICARLKRGVLYTLAQKLGCNKLALGHHLDDFVETLLLNQFFVGTLKAMAPRMLADNGETTVIRPLVYVEEREIIPFARENRFPVVCCSCPVCGTADLQRRRMKKLLTELEKENPAVKRSLLRALGNVQPRYLLDLELQRLCDVP	failed
MPHLRFRAVEAHIVESLVPTLLNELSSLLSTARNAFTFELINTQYFAEGGVYPMVEVLWFGREQQTQDQIAQVITDQIRQLLGADSHLAVVFIPLQRTAYYLDGQHF	not failed
MPHLVIEATANLRLETSPGELLEQANAALFASGQFGEADIKSRFVTLEAYRQGTAAVERAYLHACLSILDGRDAATRQALGESLCEVLAGAVAGGGEEGVQVSVEVREMERASYAKRVVARQR	not failed
MPHNLFSLFSQPLKPPLFEPGEPRFWDDPHISKSMLEAHLNQTHDGASRRNAEIEKTIRHLITSGFLKTGDQVLDLGCGPGLYSSKLCFEGMKVTGIDLSRRSIDYARAQAERDGQNIDYIYTDFFNIDYKETFDAVLQVYGEICTFSDEKRDLLLNLVHRALKDNGIFIFDVSTRELRMREGLKNRWYFSEGGFWRPGKHLVLEEGFDYPENDTWLNQYIIVDEDGTVKVYRLWLHDYSFETISQTLENNGFRVEKAWNNLSGELYQKGGDWIAIAAKKV	failed
MPHRKNTFSSWRSRLAQKAVHAGWAWVQRTGSVTAAHPGRFRFGALGTGTRLAFPLGTVFGEPWIQVGAHCIIGEQVTLTAGLMPDLDLGPEPILRIGDGVVLGRGSHVIADTTVTIGSDCYFGPYVYVTSTNHSYDDPHQPIGKQWPRMDPVEIGPGCWIGTGAVILPGARIGRNVVVAAGAVVRGAVPDHAVVAGAPARVVRRWTPAEGWQPPLRTPAPVPIPDGITPGQLRELSKLDDEAVARLAELDDPERAAGRLAEPAAEG	failed
MPIDEWLVLNRIGIFENPSLRRYVSPFPPPELMGITSGLQSETGFAAHGADIYAALALASTIPITEYRHILDFGCGCGRLARMLKGHPHKISGCDIDLRHVKWIGQSLDFMNVKLSSVRPPIPFADDEMDAVISVSIFTHLTENSQDDFLAELFRVTRPGGTLFLTVHGAQALKRACHEQPIRHMLDMDEGRFRKAQQAFNQNKHGFVLQFGHLTTKPEKAFYTPRAIFRRIRDSFSRKTINMPFEYGIAFHPESYIREHWSKWFDILDYRHGAIHQFQDIVVLSPKK	failed
MPIGSAMSRIATSSPGHDALSDRERAVAEKFAAGLTYREIGEALFIAPSTVRTHLASIYDKLGVRNKVALASHINGAIGAGMDGPPRLPGASPVLAIFPIECQTSEERWRRFADGLSSDITIDLARYADLPVIAFHTMKSLGSKPADFAADGKALGATYVVSGQLRADERRVRLSIELADADNGVSLWSERYDRQVEDIFALQDSLTETVINVIAGSYGALATVGRKAIRRKPPASLRAYDCYLLGVEQQDTFSRAGIAEAIRLFSRALELDPTLVRAWTALAYAYSIEGANGFGDDAQVSIENWRTAVENAILLDPMDSVACNCLGDLRGCLGDLEGAERAYRRAFEYGSNHADTLAMLAGSKALVAGDPAEAMPLIERAMHLNPLAPPWYFGMLGRILFTLGRHREAIAALCRSTLNSPNVLLFLALAHTSVGEAAEAARIEARLKTEFADFSVERFITCYPVTNPDAVHAIRHAAQQLARRD	failed
MPIIELVILLACLVLLSNVLSHYLVAIPVSLIQVGLGLGVALLLNVQVKLQTDWFMLVFIAPMLYNDGREFPKQELWELRGAIFANAIVLVFITTILGGFLIHVLIPTIPLAVGIALAAILSPTDPIAVQSISEGVKLPKEILHLVSGESLINDASGLIGFKYALAAAVTGTFVLGEAVGDFFYISLVGLAVGLALITIIQLIRDVLRREGINDIVFNVVLQILTPFAIYFIAEEWFHASGVVAVVAAGVLSHLQNSHESEDAPELRLVTERVWNVVVYLLNGIVFLILGIELPAATQATIKGAHTNTFHAVFDVLIVWGILLLIRVAWTYAYMLFNWLRHHKKAKPSLRIAALSGLSGVRGAITMAGVFTIPTVVASGKAFPERALVLFIAAGVIIVSLVAAAAILPLMAAKSLPFVTRGSSPDEDDAVLAEGTDDGDDSSGQLPQLTYKQARIYILQLAIQNIEEHRRPANQRAAYDLILDQQFQIRRLEVASQTADELAPMLTDELELRLVALNGERAAVREMIANKQTSKLAGQVYLRRVDRREQRFLQATHRQGLPTLRSLRLLLTRAMQGIRLWLAPGDSEELRVALLDIQREASKAAIKALSQYLKQANVDEQQFDRQALYHLIVHYRNRIENAKNDHTLSRDDYEQQLHGLRIKSLGAERAGVQHLLESGQISLRTAAKLRQFINYSENLLMLNDIEADED	failed
MPIIKTLTKATKLEKEKFTIPKSVQDAIPIQRIWPDGIFQVGSRFSKTFSFTDINYSIASKDDKTAMFLDYSELLNALDSGASAKITIHNRRIDKAQFEKSLLLPMREDGLDHFRREYNEMLLSKVTGTNNSVVQDRYITITVAKRNIDEARTYFSRVGTDLINHLSQLSSVGRELDAAARLQLFRDFFKGSEPAAFAFDLREHMKKGHSFKDWLCPDSMEFQKDHFRIDERWGRVLYLQDYATYIKDSMIAELCDMDRSLMLAIDVLPVPTDEAVREIQNKLLGVETNAANWQRKQNAANNFSAVLPYDMEQQRKETKEMLDDLTNRDQRMMFGLVTLVHLADTKEQLDSDTETILTVARKHLCQMSTLRWQQKDGLDTVLPYGLRKIHALRTLTTESTAVLIPFRAQEILQGGGIYYGQNAVSKNMIVADRRKLLNGNSFRLGVSGSGKSFSAKEEIVSIALSTDDDILILDPESEFGFLTEALGGEVIRVSASSDTHINALDMDKAYGDERNPLIEKSEFILSLFEQLVGAGGVSAKEKSILDRCTYDVYREYMANNYQGEVPTLKDLYQSLLKQPEPEARGLALSSELFITGSLNTFAQPTNVDTKARIIAYDIRELGEQLMPIGMLVTLDAIFNRVIQNWKKGKTTWVFADEFYLLFRYQYSADFFYKLWKRIRKYNGLVTGLTQNVEELLRSDTARLMLANSEFLILLNQSPTDRDELAGLLHISDTQLGYITNVSAGCGLIRCAGNIVPFENSFPRNTRLYQLMTTKPDEALRGVLEHHHHHH	failed
MPILTISGSPSAPSRSARLLGHVRAQLERAGESADHLDLRALPADALLGAQTAHPAIAEALARVAAAGVVILATPVYQAAYSGLLKTFLDLLPQSGLRDKVVLPIATGGSLAHTLAIDYALRPVLSSLAARVILPGIFAADAQIGAADDGFAVDPALQQRLDDGIERVHQAIALARHPAVAQVIVASRRTVRSAFQAHANAQATDAQQRMRCPA	failed
